This data set in a line: soluble on expression in E. coli; label from the status in PepcDB or PDB records.
With “MTTFTHINSQGEANMVDVSAKAETVREARAEAIVTMSKETLSMIVEGKHHKGDVFATARIAGIQAAKRTWELIPLCHPLLLSKVEVNLEPLLETNQVRIQSLCKLTGKTGVEMEALTAASVAALTIYDMCKAVQKDIVIEHVRLLEKSGGKSGHFIAEEK”, the “soluble on expression in E. coli” value is listed as “soluble”.

As for “MTTLEILRSGPLALVEDLGRAGLAHLGVGRSGAADRRSHTLANRLVANPDDWATVEVTFGGFSARVRGGDVDIAVTGADTDPTVNGIMVGTNSIHHVRDGQVISLGTPRAGLRTYLAVRGGVCVEPVLGSRSYDVMSAIGPSPLRAGDVLPVGEHTDDYPELDQAPVAAIEEHLVELRVVPGPRDDWLVDPDALVHTIWMASNRSDRVGMRLQGRPLQHRWPDRQLPGEGVTRGAIQVPPNGLPVILGPDHPITGSYPVVGVITDEDIDKVAQIRPGQYVRLHWARPRSRLPGQGVTQAW”, the “soluble on expression in E. coli” value is “soluble”.

As to “MTTLTAQQIACVYAWLAQLFSRELDDEQLTQIASAQMAEWFSLLKSEPPLTAAVNELENRIATLTVRDDARLELAADFCGLFLMTDKQAALPYASAYKQDEQEIKRLLVEAGMETSGNFNEPADHLAIYLELLSHLHFSLGEGTVPARRIDSLRQKTLTALWQWLPEFVARCRQYDSFGFYAALSQLLLVLVECDHQNR”, the “soluble on expression in E. coli” value is “soluble”.

Turning to “MTTPRWLTQDEQSLWRLFLAMERKVTRGIDEELQSSQGLTTPEFSVLVSLSERPGHEIRLRDLCESLQWDRSRTSHQITRMQRRGLVTKTKCSDDARGVFVELTPEGEKRLREAAPGHVDVVRKLIFDVMTEEEAAVLRGYFQKVIDVQCGASTGNPLDD”, the “soluble on expression in E. coli” value is “not soluble”.

On to “MTTRILTGITPTGTPHLGNYAGAIRPAILASRRSDVDSFYFLADYHALIKCDDPARIQRSRLEIAATWLAGGLDVERATFYRQSDIPEIPELTWLLTCVSAKGLLNRAHAYKAAVDRNVEAGEDPDAGVTMGLYSYPVLMAADILMFNAHKIPVGRDQVQHVEMARDIGQRFNHLFGNGREFFVLPEAVIEENVATLPGLDGRKMSKSYDNTIPLFSPSRQLKDAIARIVTDSRAPGEPKDPDSSHLFLLYSAFASAEQVAAFRQELLEGLAWGEAKQRLFQLLDNELGEARERYQALIAKPDDIEDILLAGAAKARRIATPFIAELREAVGLRSLREPLKSAESGKKKAAKAARLVSFRDDDGSFRFRLLDAAGEQLLLSRAFADGKAAGAVSKRLLAGETADLRAEGNAFGLWLDGEAVAQSPAFADAAARDAAIERTREALAPQ”, for which the “soluble on expression in E. coli” value was “not soluble”.

With “MTTRLIVKNLPSTCTEQQLRKFFEKYGQISDASLKYTKEGKFRGFAFVGFLDEGSASNALAKSNQTFFNSKKLTVEECRPFGDANKPRAWSKYAKDSSAYKRTHGEKEEANPGKSDETEEPAPKKQKDDAKFDQFLEAKGVVVEKEVKLSKDKSAEAKKLMAELMDGIGGDTSLSLIFSGLPSSAKGKNIKEWLNPIRVKAMKIARNEDVAAAFVTFNRPPDVRRALQKDGQFLGGFKIGIEKIETPEPEHEVIEEHGASLESRDKEEETVREKILETGRLFLRNLPYATKEDDLQFLFKKYGEVSEVQVVIDKKTGACKGFAIVEFVFPEAAVAAYSALDGYVFKGRMMHILPGDEKRTKEGEEESEVVPDDPDNPLKAEAKKEKKKKSFKEEKDEQKKASAGKTAHSWNALFLGANAIADTLAQRLNVKKSDLLTSDQGESAGVRLALAETRLVRETRDFFLENGVKLDAFSKPAEKRSDTVMLAKNLPAGVESEELQRMFEKFGDCTKVLMPTEGGVSALVIMGNPVDAKKAFRALAYSRFRSQPLYLEWAPYDVMGATAPPAEDKTAEVADKPKLSKREMTYEEKRKERKNRQQGITEEEKDDGEVIEEEEKPKEVEAEDKKKSSKKQSEKEIESGSTLFVKNLAFDTTDGSLEFLFRKRYGDLVKSAQISKKLNPAEPTKPLSMGFGFVQFYTAFDAKTALKDMQGELLDGHSLELKISHRENADKGALKRKEVKQKEQGECTKLLVRNLPFEASVKEVETLFETFGAVKTIRIPKKPGQKQQHRGFGFVDFISADEAHRAFDSLVHSTHLYGRRLVLEWAKDDETVEELREKTAEKFAGNKKGVKKSKAQTEEFQQQLQIADDEKD”, the “soluble on expression in E. coli” value was “not soluble”.

“MTTSCLQEKIDKLQNTVHALLHKSNYMAGVYVDDLARLNNEIHEQINDLYPCHGKTAEQEAALCLSLLMGYSVSMYANSEDEAKKKTVLRRSQMILKNQLPSPLKIQLHTIYDKLLS”: the “soluble on expression in E. coli” value is reported as “not soluble”.

With “MTTSSHGLEKAMELAKFSKSQKERAREILEAGLLEATYGHLAPSSNFVGGMCVGNVSPGGEPVNLNAKVTGYLPKIKEMAEKHGVAQYVGILAAQMMQESQGEGNDPMQAAEGHYGDLSSSCIGLKGSARIGCIKDPNISIEAGVQEFKDVLAKANGDIALALQSYNYGPGFISYALAKGGYSEETAIAFSREHAGENPAGCSDPNNFRTKVGACYGDFTYVSKILKYYKDLGCVTAGDGEWISDKGWKWPTKSGRITDTFDAVRNGKQHNAVDIGAMTAGKPGDPVWSMEAGVVTAQTGYVNYGGLGVYIDHGNGIVSRYLHLSKISVTPGTMVTKGQIIGEMGGSNYVGGVLNMLGYAVHLDFQIRINDQPTDPMKFFKKNDDPGLSSGGSPTMTNAKRQKVLEEAKKWLGQGKVRYVLGDRNPPGGTSDCSGFTQYVFRTSIGVQLGDWTGAQVGQGKQVPDINHAQPGDLIFYENPGHVAIYMGNQKMIHIGDNKGVQITGLNYTARGQHMTQIRNVID”, the “soluble on expression in E. coli” value is on record as “not soluble”.

Regarding “MTTTPYDIIGKEALYDMIDYFYTLVEKDERLNHLFPGDFAETSRKQKQFLTQFLGGPNIYTEEHGHPMLRKRHMDFTITEFERDAWLENMQTAINRAAFPQGVGDYLFERLRLTANHMVNS”, the “soluble on expression in E. coli” value was “not soluble”.

As to “MTTVLYYLPASPPCRSVLLLAKMIGVELDLKVLNIMEGEQLKPDFVELNPQHCIPTMDDHGLVLWESRVILSYLVSAYGKDENLYPKDFRSRAIVDQRLHFDLGTLYQRVVDYYFPTIHLGAHLDQTKKAKLAEALGWFEAMLKQYQWSAANHFTIADIALCVTVSQIEAFQFDLHPYPRVRAWLLKCKDELEGHGYKEINETGAETLAGLFRSKLKQ”, the “soluble on expression in E. coli” value was “soluble”.

In the case of “MTVEHSEAPMTETDVVIIGAGHNGLTCAAYLAMAGLRVRVVERRKVVGGAAVTEEFHPGFRNSVAAYTVSLLNPQVIRDLGLAEQGLRIVERRAQNFLPAPDGSYLLTGEGRTKASVARLSAHDADALDGFSRELEDIADVLRQFVLRAPPNLLDGFGTNAIREAVNALQSANILRGLTLEQSRSLLDLFTRSAGEMLDERFEHDLVKALFGFDAIVGNYASPYAAGSAYVMLHHAFGEVNGKKGVWGHAIGGMGAITQAMARAAQGRGVAIDTDAGVREVIVERDRAVGVVLENGATIRAKYVAANVNPKLLYTRLIAADALPKDFLARIRHWKNGSGTFRMNVALDRLPSFTALPDDGDHLTSGIILAPSLGYMDRAFLDARAHGWSREPVVEMLIPSTLDDTLAPEGKHVASLFCQHVAPELPDSRSWDDHRDEVADLMIATVDSYAPGFASSVLGRQILSPLDLERQFGLLGGDIFHGALTLNQLFSARPMLGHADYRGPLKGLYHCGSGAHPGGGVTGAPGHNAAQAILRDHRSLFGSRGLEHHHHHH”, the “soluble on expression in E. coli” value is “not soluble”.

For the sequence “MTVELCGRWDARDVAGGRYRVINNVWGAETAQCIEVGLETGNFTITRADHDNGNNVAAYPAIYFGCHWGACTSNSGLPRRVQELSDVRTSWTLTPITTGRWNAAYDIWFSPVTNSGNGYSGGAELMIWLNWNGGVMPGGSRVATVELAGATWEVWYADWDWNYIAYRRTTPTTSVSELDLKAFIDDAVARGYIRPEWYLHAVETGFELWEGGAGLRSADFSVTVQKLAAALEIKRASQPELAPEDPEDVEHHHHHH”, the “soluble on expression in E. coli” value was “soluble”.

As to “MTVIQKSSPTVKGVKTTTSDCTERRHSSSSPCKMSQNGSSGYYEGDVLLDDDALVSMPEATLIECFGNLAVTKRPAHLRPPAAFCLPFVSMNNDLTSGHALKHITLTSVFDALHPYVAMPYINRMDICSAMNVYWIRNCLEAEQSDLFHRFALEMQVHLSACFGCRVVLDIYGSTRNGFGTRFCDVDMSLSFSPSPPSWATNSDRVMRAVAKALVDFPKAVDERYVNAKVPIVRFRSSDMDMEADISYKNDLALHNTQLLQQYCKWDPERLPTLGVWVKAWAKRSGVGDASKGSLSSYAWIVMLIHYLQQVEPIPVLPCLQEMNHQKSENVYVQGYNTYYWKFVDTARTRRCRASVVDLFVGFLDYYATYFDYSTNVIQMVSKKLEFKPDRWCKYPMCIADPFETDHNLAQGVDMPMFEYIRSCMEHSKKVFTDRRMRSEFLSGYGFDVDEFDARHRGEMNMEMASQFGEFLLHKCIMVKQAPNRQFRDRSMSQSTSISNTSSISSSG”, the “soluble on expression in E. coli” value was “soluble”.

For “MTVKAMALNTNQLFAYLNRGDIAEFKFSPLFTTLFFPNVATFSTQNIMLDTLDIEEVTMSAFCSPMVGSQVQRDKGYETSTIKPGYMKPKHEIDPTKTIMRMAGEDPAQLNDPTYRRMRLITGNMRRQINAIKARVEWLAVNAVTTGKNIIEGEGIERYEIDWKIPEKNIIEQADGKKWSEQDKETHYPIYDIELYADQAGCPANVMIMGAEVWRTLRSFKKFRELYDLSRGSESAAELACKNLGEVVSFKGYLGDLALIVYSGKYTDSDGTEKYFLEPDLLVLGNTNNKGLVAYGAIMDQEAVRTGATQNMFYPKNWIEDGDPAIEYVQTHSAPQPVPADIRKFVTVKIA”, the “soluble on expression in E. coli” value is “soluble”.

As for “MTVSNNGMAMPSVPPKIDCSEAIQDSPKFRATVAQHAMYFNRLENRLNEMLRHITAMIDFSKNYTNTFYKLTVSVNQLCDESFSGNPLASTTFQGLSEAYAHTVNLFRTYFDHSNVVTFTKLSNFIKIELTKVAESRAHFENMSQSMDDALVKNASISRQKPADATEGRNALTAVGTCFAHTTLDYVANINIAHAHKDHMILDALWTLVRESSAFFSKGHATFDEWTAADNGAIADTIQTFAAKSKLIERKMQDVHSLVPKEMFQHPSGMPIEPDVMMEGYLYKRSSNAFKTWNRRWFQIKDKQLLYSHRSTDLEPATIMEENLRICLVRPAPSNIDRIGCFELVTPTRIHLLQADSESLCQDWMRALQRTILALHEGDSVDVASTSPRNKTTSMSSGVTLTSANAISPLSNAMDVTKGRSVSDPASTYTSANTSSISTAAGFSSSTTAFEQVRRVPGNEVCADCGSPAPKWVSINLGVVLCIECSGAHRSLGVQTSKVRSLCMDSIDNELRDVLLALGNRQVNEIFLAHLPPADSIVPPQINEKSARPAREAWIKAKYVERRFAVAEDTRARSSATNRQEHLKHKTSIGGNSSSNGVNRSSSYADVQDAESGGLLDADPWSADLSVPVPTASKRLSACGSDTNLDAIGSSSIDTKTVEWDSVKEACECGDLLALMTAYAQGFDLNALHNGTTALHIATRNGQTAAVEFLLLNGAKINMLDEKLNTPLHLAAKEGHTLPVCQLLKRGADSNLANVDSKTPLDIAMECTHADIVTLFRVTIMRNDFNADFNNPMDETVEAVISDIARRAATEKEQKKTESLKSTSDI”, the “soluble on expression in E. coli” value was “not soluble”.

In the case of “MTVYLRKAEPSDLPDILAIIEDGRRTLQKSGIPQWQNGDGPNQEILAKDIDQQTCYILMVEDALAGVGVLCSEIDPAYEAIFNGSWQPHSQTTYTAIHCVALKSSFQGQGLALVLLRSLVTAARLQGATDIRIDTHPQNLAMQHLIKKAGFVYQGDVILDVNDGERYAYQMILK”, the “soluble on expression in E. coli” value is on record as “not soluble”.

The record behind these values is the DeepSol protein solubility set.
